Reference: patent US7037502B2, “Peptide with the amino acid sequence of KVLDGQDP having anti-inflammatory properties” (priority 2001, dated 2006)

Assays:
[1] = molecular target: T1, PLA2 (Bovine pancreas, EC 3.1.1.4) (Bos taurus, UniProt P00593); assay: Inhibitory effect of synthetic peptides on PLA2 in vitro ([14C]-arachidonic acid release); format: biochemical; conditions: peptides 1×10^−8 M, preincubated 15 min at 37° C.; compared with the peptides known as PLA2 inhibitors
T1 construct: 0.18 Unit PLA2 (Bovine pancreas, EC 3.1.1.4, Sigma); purchased Sigma; host or cells: bovine pancreas
Source text: It has been examined whether synthetic peptides contain inhibitory effect on PLA2 activity. A established PLA2 assay method was used to determine the enzymatic activity by measuring the release [^14C]-arachidonic acid from 1-acyl-2-[1-^14C]arachidonic acid-glycerophospho-ethanolamine (Biochem. Pharmacol. 54, 259–268, 1997). To determine the inhibitory activity, 0.18 Unit PLA2 (Bovine pancreas, EC 3.1.1.4, Sigma; 1.0 unit will hydrolyze […] of L-phosphatidylcholine to L-lysophosphatidylcholine and a fatty acid per min. at pH 8.0 at 37° C.) was preincubated for 15 minutes with the synthetic peptides (1×10^−8 M) at 37° C. in […] before adding 1-acyl-2-[1-^14C]arachidonic acid-glycerophospho-ethanolamine. The control was also PLA2 preincubated with buffer. After pre-incubation, PLA2 activity was assayed using sonicated liposomes, prepared as established method (Biochem. Biophys. Acta. 1083, 80–88, 1991). […] of 1-acyl-2-[1-^14C]arachidonic acid-glycerophospho-ethanolamine (about 2×10^5 dpm) was added in pre-incubated mixture, and incubated for 1 hr at 37° C. […]
For inhibitory test of the peptides given, each value is the mean of data from three separate experiments (S.D.<10%). The value of PLA2 activity incubated without peptides was determined as 100% PLA2 activity that is 5.57 pmole arachidonyl/hr. % Inhibition was shown in FIG. 1.

PLA2 activated by TGase = molecular target: T2, PLA2 activated by TGase (Cavia cutleri, UniProt P08587); assay: Inhibitory effect of synthetic peptides on PLA2 activated by TGase in vitro; format: biochemical, Bovine; conditions: peptides 1×10^−8 M, preincubated with 0.001 Unit TGase 15 min at 37° C.
T2 construct: pre-incubated with 0.001 Unit TGase (Guinea pig liver, Sigma); purchased Sigma
T2 sequence (P08587 2-690 limits assumed): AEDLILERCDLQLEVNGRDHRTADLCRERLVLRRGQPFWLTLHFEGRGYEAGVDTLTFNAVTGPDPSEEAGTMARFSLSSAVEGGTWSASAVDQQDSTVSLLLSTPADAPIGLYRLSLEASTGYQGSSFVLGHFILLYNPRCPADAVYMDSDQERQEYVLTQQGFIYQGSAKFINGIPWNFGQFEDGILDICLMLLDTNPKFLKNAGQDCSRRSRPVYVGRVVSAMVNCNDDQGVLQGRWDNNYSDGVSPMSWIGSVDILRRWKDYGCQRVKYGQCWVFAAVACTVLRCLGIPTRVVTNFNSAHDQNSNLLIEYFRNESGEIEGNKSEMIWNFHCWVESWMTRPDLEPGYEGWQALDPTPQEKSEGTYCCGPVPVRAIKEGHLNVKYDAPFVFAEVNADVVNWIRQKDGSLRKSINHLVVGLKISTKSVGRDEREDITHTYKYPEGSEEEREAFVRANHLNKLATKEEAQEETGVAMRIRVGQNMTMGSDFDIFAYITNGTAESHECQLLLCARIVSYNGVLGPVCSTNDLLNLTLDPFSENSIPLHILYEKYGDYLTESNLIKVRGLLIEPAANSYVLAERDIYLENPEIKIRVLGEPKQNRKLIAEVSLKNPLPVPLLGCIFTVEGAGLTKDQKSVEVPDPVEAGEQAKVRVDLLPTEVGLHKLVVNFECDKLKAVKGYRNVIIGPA
Experimental: A series of synthetic peptides (1×10^−8 M) were pre-incubated with 0.001 Unit TGase (Guinea pig liver, Sigma) in […] of assay buffer (75 mM Tris-Cl, pH 9.0, 5 mM CaCl2, 1 mg/ml fatty acid free bovine serum albumin) for 15 min at 37° C. We employed a negative control as assay buffer without TGase, and a positive control as TGase without peptides. After pre-incubation, […] of 1-acyl-2-[1-^14C] arachidonic acid-glycerophospho -ethanolamine (about 2×10^5 dpm) was added in pre-incubated mixture, and incubated for 1 hr at 37° C. The reaction was terminated by adding 0.75 ml of Dole's reagent, and followed the same procedure described as above.
For inhibitory test of the peptides given, each value is the mean of data from three separate experiments (S.D.<10%). The increased PLA2 activity by TGase was determined as 100% that was 11.22 pmole arachidonyl/hr. % Inhibition was shown in FIG. 3.

T1 sequence (P00593 23-145): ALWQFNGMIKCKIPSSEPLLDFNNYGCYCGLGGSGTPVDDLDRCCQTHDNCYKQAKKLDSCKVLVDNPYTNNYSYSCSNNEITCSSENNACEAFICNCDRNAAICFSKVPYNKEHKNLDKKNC

## KVLDGQDP [Peptide R2, synthetic peptide of the invention]
[1]
  PLA2 activity (FIG. 1), result in words: significantly reduced
PLA2 activated by TGase
  PLA2 activity activated by TGase (FIG. 3), result in words: significantly reduced

## KVLDPVKG [Peptide R1, synthetic peptide of the invention]
[1]
  PLA2 activity (FIG. 1), result in words: significantly reduced
PLA2 activated by TGase
  PLA2 activity activated by TGase (FIG. 3), result in words: significantly reduced
